Patent US20180112008A1 (Memorial Sloan Kettering, published 2018)
Where a chain is given by its changes, count along the chain named. Blank lines part the entries; values can stand above or below the molecule they belong to. Ends that are not written are not given here. * marks the point of attachment. GlcNAc2 = N-linked chitobiose, CC(=O)N[C@@H]1[C@@H](O)[C@H](O[C@@H]2O[C@H](CO)[C@@H](O)[C@H](O)[C@H]2NC(C)=O)[C@@H](CO)O[C@H]1*

Columns and labels:
[1] = molecular target: MUC16 unrelated peptide 18mer+GlcNAc2; assay: sandwich ELISA on 'MUC16 unrelated 18mer + GlcNAc2'; Blank 0.014
[2] = molecular target: GlcNAc2-15-mer glycopeptide, unconjugated (human); assay: sandwich ELISA on 'MUC16 15mer + GlcNAc2'; Blank 0.019
MUC16^c114 (human) [3] = assay: FACS, SKOV3-c114
[4] = molecular target: non-glycosylated 15-mer MUC16 peptide (human); assay: ELISA 12/24/13 (sups from time of freezing), neat, column 15
MUC16 18mer [5] = assay: ELISA 12/24/13 (sups from time of freezing), neat, column 18
[6] = molecular target: GlcNAc2-15-mer glycopeptide, unconjugated (human); assay: ELISA 12/24/13 (sups from time of freezing), neat, column 15S
MUC16^c114 (human) [7] = assay: FACS of transfected cells; vector control phrGFP 11.4; cell line not given
[8] = molecular target: non-glycosylated 15-mer MUC16 peptide (human); assay: sandwich ELISA on 'MUC16 15mer'; Blank 0.021
MUC16 18mer [9] = assay: sandwich ELISA on 'MUC16 18mer'; Blank 0.032
[10] = molecular target: (GlcNAc2)2-18-mer glycopeptide, unconjugated (human); assay: sandwich ELISA on 'MUC16 18mer + GlcNAc2'; Blank 0.029
[11] = molecular target: (GlcNAc2)2-18-mer glycopeptide, unconjugated (human); assay: ELISA 12/24/13 (sups from time of freezing), neat, column 18S
[12] = molecular target: MUC16 unrelated peptide 18mer; assay: sandwich ELISA on 'MUC16 unrelated peptide 18mer'; Blank 0.013
MUC16^c114 (human) [13] = assay: FACS, SKOV3 transfectant, goat anti-mouse IgG-PE
MUC16^c114 (human) [14] = assay: FACS of transfected cells; vector control phrGFP 7.9; cell line not given
[15] = molecular target: MUC16^c114 on SKOV3 cells with MGAT5 knock-down (human); assay: FACS, SKOV3-shMGAT5-c114
MUC16^c114 (human) [16] = assay: FACS of transfected cells; vector control phrGFP 3.7; cell line not given
MUC16^c114-N3 = molecular target: T1, MUC16^c114-N3 (human, chain 1 pos 1 and pos 24: N-glycosylated Asn (cell-made glycans), written N); assay: FACS, SKOV3 transfectant, goat anti-mouse IgG-PE
T1 construct: MUC16^c114 with Asn30 (Asn1806) changed to Ala, on SKOV3 cells; also called N30 mut c114; SKOV3-N30 mutc114; not shown: hrGFP of the phrGFP II-C vector, fused at the cytoplasmic carboxy-terminus
T1 chain: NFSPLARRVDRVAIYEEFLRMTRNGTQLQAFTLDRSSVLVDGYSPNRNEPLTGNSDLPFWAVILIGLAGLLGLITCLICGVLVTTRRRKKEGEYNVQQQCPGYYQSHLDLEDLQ

MUC16^c114-N1 = molecular target: T2, MUC16^c114-N1 (human, chain 1 pos 24 and pos 30: N-glycosylated Asn (cell-made glycans), written N); assay: FACS, SKOV3 transfectant, goat anti-mouse IgG-PE
T2 construct: MUC16^c114 with Asn1 (Asn1777) changed to Ala, on SKOV3 cells; also called N1 mut c114; SKOV3 MUC16^c114-N1; not shown: hrGFP of the phrGFP II-C vector, fused at the cytoplasmic carboxy-terminus
T2 chain: T1 chain with N1A, A30N

MUC16^c114-N123 = molecular target: T3, MUC16^c114-N123 (human, All three N-glycosylation sites (pos 1, 24, 30) are mutated to Ala; none is left in the ectodomain.); assay: FACS, SKOV3 transfectant, goat anti-mouse IgG-PE
T3 construct: MUC16^c114 with Asn1, Asn24 and Asn30 changed to Ala, on SKOV3 or 3T3 cells; also called N1-N24-N30 mut c114; SKOV3-N1-N24-N30mutc114; not shown: hrGFP of the phrGFP II-C vector, fused at the cytoplasmic carboxy-terminus
T3 chain: T1 chain with N1A, N24A

MUC16^c80 = molecular target: T4, MUC16^c80; assay: FACS of transfected cells; vector control phrGFP 11.4; cell line not given
T4 construct: also called External Deletion
T4 single chain: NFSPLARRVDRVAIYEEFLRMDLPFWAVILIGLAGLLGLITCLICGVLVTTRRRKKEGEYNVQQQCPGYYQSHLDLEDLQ

MUC16^c86 = molecular target: T5, MUC16^c86; assay: as above
T5 construct: also called Internal Deletion
T5 single chain: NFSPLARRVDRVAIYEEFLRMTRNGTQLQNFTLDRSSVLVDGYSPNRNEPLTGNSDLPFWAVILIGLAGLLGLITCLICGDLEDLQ

MUC16^c344 = molecular target: T6, MUC16^c344 (human, N- and O-glycosylation sites ; chain 1 pos 231, 254 and 260 (N1, N24, N30 of c114): N-glycosylated Asn, written N; further N- and O-glycosylation sites in the tandem-repeat part); assay: as above
T6 construct: also called MUC16^c344-GFP; SKOV3-c344; not shown: hrGFP of the phrGFP II-C vector, fused at the cytoplasmic carboxy-terminus
T6 chain: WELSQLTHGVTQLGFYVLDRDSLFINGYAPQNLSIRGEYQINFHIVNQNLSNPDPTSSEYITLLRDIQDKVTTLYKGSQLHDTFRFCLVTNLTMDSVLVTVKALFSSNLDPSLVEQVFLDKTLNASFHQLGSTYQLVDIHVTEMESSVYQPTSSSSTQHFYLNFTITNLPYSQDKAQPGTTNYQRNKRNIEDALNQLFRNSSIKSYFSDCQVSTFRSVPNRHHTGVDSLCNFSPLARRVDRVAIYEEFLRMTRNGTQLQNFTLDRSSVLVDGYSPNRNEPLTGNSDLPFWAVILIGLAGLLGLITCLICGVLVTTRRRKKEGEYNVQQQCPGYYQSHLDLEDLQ

[17] = molecular target: T7, MUC16 nonglycosylated peptide 2 (human); assay: sandwich ELISA on 'MUC16 Nonglycosylated Peptide2'; Blank 0.029
T7 construct: Peptide used to elicit the 4H11 antibody; also called nonglycosylated MUC16 peptide 2
T7 peptide: CTLDRSSVLVDGYSPNRNE

MUC16^c114-N2 = molecular target: T8, MUC16^c114-N2 (human, chain 1 pos 1 and pos 30: N-glycosylated Asn (cell-made glycans), written N); assay: FACS, SKOV3-N24 mutc114
T8 construct: MUC16^c114 with Asn24 (Asn1800) changed to Ala, on SKOV3 cells; also called N24 mut c114; SKOV3-N24 mutc114; not shown: hrGFP of the phrGFP II-C vector, fused at the cytoplasmic carboxy-terminus
T8 chain: T1 chain with N24A, A30N

[18] = molecular target: HER3 (endogenous, MUC16^c114-expressing 3T3 cells) (Mus musculus (Mouse), UniProt Q61526 20-1339); assay: co-precipitation from MUC16^c114-expressing 3T3 cells with MUC16-targeting antibodies, western blot
Chain of HER3 (endogenous, MUC16^c114-expressing 3T3 cells) (Q61526 20-1339 limits assumed): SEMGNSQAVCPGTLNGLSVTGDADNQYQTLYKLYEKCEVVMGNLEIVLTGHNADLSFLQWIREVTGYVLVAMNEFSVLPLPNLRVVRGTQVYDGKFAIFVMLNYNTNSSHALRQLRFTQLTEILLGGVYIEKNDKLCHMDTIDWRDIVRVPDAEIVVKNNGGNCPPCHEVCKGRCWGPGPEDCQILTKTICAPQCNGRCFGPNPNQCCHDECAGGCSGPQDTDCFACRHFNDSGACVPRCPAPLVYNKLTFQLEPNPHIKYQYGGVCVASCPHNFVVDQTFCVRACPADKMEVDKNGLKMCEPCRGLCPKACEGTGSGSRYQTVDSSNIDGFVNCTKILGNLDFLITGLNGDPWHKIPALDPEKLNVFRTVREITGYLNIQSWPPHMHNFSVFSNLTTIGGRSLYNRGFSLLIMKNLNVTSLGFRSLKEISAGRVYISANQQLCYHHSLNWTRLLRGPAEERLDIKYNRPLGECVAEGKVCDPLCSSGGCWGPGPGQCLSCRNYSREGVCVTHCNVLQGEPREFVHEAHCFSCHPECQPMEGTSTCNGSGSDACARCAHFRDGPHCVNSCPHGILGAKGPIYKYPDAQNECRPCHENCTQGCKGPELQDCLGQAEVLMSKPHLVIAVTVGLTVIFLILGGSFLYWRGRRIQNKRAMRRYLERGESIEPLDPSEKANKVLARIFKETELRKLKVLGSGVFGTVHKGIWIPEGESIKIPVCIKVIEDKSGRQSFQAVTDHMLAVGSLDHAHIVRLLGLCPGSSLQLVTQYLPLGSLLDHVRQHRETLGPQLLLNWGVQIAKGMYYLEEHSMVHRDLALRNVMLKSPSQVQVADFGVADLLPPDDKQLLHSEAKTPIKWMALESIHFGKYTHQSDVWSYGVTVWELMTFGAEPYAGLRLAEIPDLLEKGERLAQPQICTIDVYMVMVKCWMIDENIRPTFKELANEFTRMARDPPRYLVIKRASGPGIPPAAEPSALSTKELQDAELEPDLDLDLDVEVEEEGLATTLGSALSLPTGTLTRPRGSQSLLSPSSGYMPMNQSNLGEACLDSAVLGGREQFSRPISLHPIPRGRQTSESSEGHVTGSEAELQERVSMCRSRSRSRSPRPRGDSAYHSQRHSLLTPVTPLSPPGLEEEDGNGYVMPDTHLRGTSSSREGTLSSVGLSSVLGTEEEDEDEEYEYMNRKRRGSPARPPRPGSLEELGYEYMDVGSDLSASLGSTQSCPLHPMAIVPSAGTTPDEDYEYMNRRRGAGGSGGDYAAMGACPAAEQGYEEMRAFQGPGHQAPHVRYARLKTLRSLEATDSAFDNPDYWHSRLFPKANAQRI

[19] = molecular target: EGFR (endogenous, MUC16^c114-expressing 3T3 cells) (Mus musculus (Mouse), UniProt Q01279 25-1210); assay: as above
[20] = molecular target: T9, non-glycosylated 15-mer MUC16 peptide (human); assay: ELISA 12/24/13 (sups from time of freezing), dilution 400, column 15
T9 construct: Same peptide as the GlcNAc2-15-mer without the glycan; also called unglycosylated 15-mer
T9 peptide: CGTQLQNFTLDRSSV

[21] = molecular target: T10, (GlcNAc2)2-18-mer glycopeptide, unconjugated (human); assay: ELISA during fusion screen, dilution 400, column 18S
T10 construct: Used in ELISA without KLH; also called 18-mer(chitobiose)2[C-T22-V38]; 18mer-chitobiose peptide
T10 peptide: Ac-CTRN(GlcNAc2)GTQLQN(GlcNAc2)FTLDRSSV-NH2

MUC16 18mer [22] = molecular target: T11, MUC16 18mer (not fully specified); assay: ELISA during fusion screen, dilution 400, column 18
T11 construct: also called non-glycosylated 18-mer MUC16 peptide
T11 peptide: CTRNGTQLQNFTLDRSSV

[23] = molecular target: T10, (GlcNAc2)2-18-mer glycopeptide, …; assay: ELISA 12/24/13 (sups from time of freezing), dilution 400, column 18S
[24] = molecular target: T12, GlcNAc2-15-mer glycopeptide, unconjugated (human); assay: ELISA 12/24/13 (sups from time of freezing), dilution 400, column 15S
T12 construct: Cys plus G25-V38 of MUC16^c114; Used in ELISA without KLH; also called 15-mer(chitobiose)[C-G25-V38]; 15mer-chitobiose peptide
T12 peptide: Ac-CGTQLQN(GlcNAc2)FTLDRSSV-NH2

MUC16 18mer [25] = molecular target: T11, MUC16 18mer; assay: ELISA 12/24/13 (sups from time of freezing), dilution 400, column 18
[26] = molecular target: T13, biotinylated chitobiose-conjugated 18-mer glycopeptide (human, also: biotinylated, site not given here); assay: BLI (Octet QK), biotinylated glycopeptide on streptavidin sensor, antibody 10 ug/mL, 1:1 model
T13 construct: Cys plus T22-V38 of MUC16^c114; The range is derived from T22-V38 and the statement that c114 is 1777-1890; also called (GlcNAc2)2-18-mer, biotinylated; 18-mer(chitobiose)2[C-T22-V38]
T13 peptide: Ac-CTRN(GlcNAc2)GTQLQN(GlcNAc2)FTLDRSSV-NH2
Description: Binding affinity was determined using ForeBio Octet QK. 5 μg/mL of biotinylated chitobiose-conjugated 18-mer glycopeptide was loaded onto a streptavidin biosensor. After washing off excess antigen, mouse antibodies were tested at 10 μg/mL for association and dissociation steps, respectively. Binding parameters were calculated using 1:1 binding site model, partial fit.

Molecule: 4H11 (antibody)
- ELISA signal [1]: 0.038
- ELISA signal [2]: 0.06
- geometric mean phycoerythrin (PE) fluorescence (MUC16^c114 (human) [3]): 1120
- ELISA signal [4]: 0.02
- ELISA signal (MUC16 18mer [5]): 0.02
- ELISA signal [6]: 0.02
- % 4H11-PE Positives (MUC16^c114 (human) [7]): 51.7%
- ELISA signal [8]: 0.049
- ELISA signal (MUC16 18mer [9]): 0.076
- ELISA signal [10]: 0.063
- ELISA signal [11]: 0.02
- ELISA signal [12]: 0.045
- Mean % PE (MUC16^c114 (human) [13]): 85.7%
- % 4H11-PE Positives (MUC16^c114 (human) [14]): 28.4%
- geometric mean phycoerythrin (PE) fluorescence [15]: 2380
- % 4H11-PE Positives (MUC16^c114 (human) [16]): 19.3%

B1: 4H11 (antibody, V domains shown)
VH: EVKLQESGGGFVKPGGSLKVSCAASGFTFSSYAMSWVRLSPEMRLEWVATISSAGGYIFYSDSVQGRFTISRDNAKNTLHLQMGSLRSGDTAMYYCARQGFGNYGDYYAMDYWGQGTTVTVSS
VL: DIELTQSPSSLAVSAGEKVTMSCKSSQSLLNSRTRKNQLAWYQQKPGQSPELLIYWASTRQSGVPDRFTGSGSGTDFTLTISSVQAEDLAVYYCQQSYNLLTFGPGTKLEVK
- Mean % PE (MUC16^c114-N3): 15.6%
- Mean % PE (MUC16^c114-N1): 91.5%
- Mean % PE (MUC16^c114-N123): 32.3%
- % 4H11-PE Positives (MUC16^c80): 16.7%
- % 4H11-PE Positives (MUC16^c86): 27.4%
- % 4H11-PE Positives (MUC16^c344): 34.4%
- ELISA signal [17]: 2.14
- geometric mean phycoerythrin (PE) fluorescence (MUC16^c114-N2): 2650

Now from value to molecule:

- binding result [18]: no binding
- binding result [19]: no binding
B2: MUC16^c114 (other)
chain: T1 chain with A30N
modifications: capable of N-glycosylation at Asn1, Asn24 and Asn30 ; chain 1 pos 1, 24, 30: Asn capable of N-glycosylation on the transfected cells, written N
notes: The forward primer adds Met-Val before Asn1; also called MUC16^c114-GFP; SKOV3 MUC16^c114; not shown: hrGFP of the phrGFP II-C vector fused at the cytoplasmic carboxy-terminus, with its short cloning linker

- ELISA signal [20]: 0.62
- ELISA signal [21]: 0.36
- ELISA signal (MUC16 18mer [22]): 0.24
- ELISA signal [23]: 0.68
- ELISA signal [24]: 0.23
- ELISA signal (MUC16 18mer [25]): 0.63
- Kd [26]: 0.0257 µM
- koff [26]: 0.00172 s⁻¹
B3: 16C5.C1 (antibody, V domains shown)
VH: QVTLKESGPGILQPSQTLSLTCSFSGFSLNTLGMGVGWIRQPSGKGLEWLAHIWWDDDKYYYPALKSRLTISRDTSKNQVFLKIANVDTADTATYYCARIGTAQATDALDYWGQGTSVTVSS
VL: ELDMTQTPPSLSASVGETVRIRCLASEDIYSGISWYQQKPGKPPTLLIYGASNLESGVPPRFSGSGSGTDYTLTIGGVQAEDAATYYCLGGYSYSSTLTFGAGTNVEIK
notes: Mouse monoclonal from a hybridoma
